From the Immune Epitope Database (IEDB)

Tests used:
HLA-B*18:01 = test: IEDB peptide-MHC binding, purified MHC/direct/fluorescence; filed as Kd, often an IC50 or EC50 that approximates it; ≥ and ≤ were set here for values at or beyond the usual limits of such assays; conditions: source organism: Mammarenavirus lassaense
HLA-B*40:01 [1] = test: as above; conditions: source organism: Mammarenavirus lassaense
HLA-A*30:01 = test: IEDB peptide-MHC binding, purified MHC/competitive/radioactivity; filed as Kd, often an IC50 or EC50 that approximates it; ≥ and ≤ were set here for values at or beyond the usual limits of such assays
HLA-B*53:01 = test: as above
HLA-B*51:01 = test: as above
HLA-B*15:01 = test: as above
HLA-B*40:01 [2] = test: as above
HLA-B*07:02 = test: as above; conditions: source organism: Dengue virus 1 Singapore/S275/1990
HLA-B*44:03 = test: as above
HLA-B*44:02 = test: as above
HLA-A*24:02 = test: as above
HLA-A*23:01 = test: as above
HLA-A*24:03 = test: IEDB peptide-MHC binding, purified MHC/direct/fluorescence; filed as Kd, often an IC50 or EC50 that approximates it; ≥ and ≤ were set here for values at or beyond the usual limits of such assays
HLA-A*26:01 = test: IEDB peptide-MHC binding, purified MHC/competitive/radioactivity; filed as Kd, often an IC50 or EC50 that approximates it; ≥ and ≤ were set here for values at or beyond the usual limits of such assays
HLA-A*29:02 = test: as above
HLA-A*30:02 = test: as above
HLA-A*32:01 = test: as above
HLA-A*01:01 = test: as above
HLA-B*57:01 = test: IEDB peptide-MHC binding, purified MHC/direct/fluorescence; filed as Kd, often an IC50 or EC50 that approximates it; ≥ and ≤ were set here for values at or beyond the usual limits of such assays; conditions: source organism: Yersinia pestis Antiqua
HLA-B*58:01 = test: as above; conditions: source organism: Yersinia pestis Antiqua
HLA-A*31:01 = test: IEDB peptide-MHC binding, purified MHC/competitive/radioactivity; filed as Kd, often an IC50 or EC50 that approximates it; ≥ and ≤ were set here for values at or beyond the usual limits of such assays; conditions: source organism: Mammarenavirus brazilense
HLA-A*68:01 = test: as above
HLA-A*33:01 = test: as above; conditions: source organism: Mammarenavirus brazilense
HLA-A*03:01 = test: as above; conditions: source organism: Mammarenavirus brazilense
HLA-B*46:01 = test: IEDB peptide-MHC binding, purified MHC/direct/fluorescence; filed as Kd, often an IC50 or EC50 that approximates it; ≥ and ≤ were set here for values at or beyond the usual limits of such assays
[3] = source organism: Dengue virus 2 Jamaica/1409/1983
[4] = source organism: Vaccinia virus Copenhagen
[5] = source organism: Dengue virus 4 Philippines/H241/1956
[6] = source organism: Dengue virus 1 Brazil/97-11/1997
[7] = source organism: Dengue virus 1 Singapore/S275/1990
[8] = source organism: Dengue virus 3 Martinique/1243/1999
[9] = source organism: Vaccinia virus WR
[10] = source organism: Dengue virus 4 Dominica/814669/1981
[11] = source organism: Lassa virus Josiah
[12] = source organism: Lymphocytic choriomeningitis virus (strain Armstrong)
[13] = source organism: Mammarenavirus brazilense

MEGLKLLSL
Kd (HLA-B*18:01): 222 nM
Kd (HLA-B*40:01 [1]): 160 nM

RGRIGRNPK
Kd (HLA-A*30:01; [3]): 18.7 nM

PPFGDSYII
Kd (HLA-B*53:01; [3]): 1740 nM
Kd (HLA-B*51:01; [3]): 9780 nM

FIRMLILNF
Kd (HLA-B*15:01; [4]): 7450 nM

VTNIELEPPF
Kd (HLA-A*30:01; [5]): 468 nM

VEDERFWDL
Kd (HLA-B*40:01 [2]; [6]): 155 nM

GVYPLSIPAT
Kd (HLA-A*30:01; [7]): 1900 nM

RIKQQGIFG
Kd (HLA-A*30:01; [8]): 19.9 nM

TPNLAERVL
Kd (HLA-B*07:02): 114 nM

KEEESEGAIW
Kd (HLA-B*44:03; [8]): 90.9 nM
Kd (HLA-B*44:02; [8]): 58.4 nM

ISKTSIACF
Kd (HLA-B*15:01; [4]): 10800 nM

FSHDHIGHG
Kd (HLA-B*15:01; [9]): 31.9 nM

YAQMWSLMYF
Kd (HLA-A*24:02; [8]): 247 nM
Kd (HLA-B*53:01; [8]): 106 nM
Kd (HLA-B*51:01; [8]): 12900 nM
Kd (HLA-B*15:01; [8]): 9.91 nM
Kd (HLA-A*23:01; [8]): 594 nM

IQKETLVTF
Kd (HLA-A*24:02; [3]): 1560 nM
Kd (HLA-B*15:01; [3]): 1.61 nM
Kd (HLA-A*23:01; [3]): 40.5 nM

REIPERSWNT
Kd (HLA-B*40:01 [2]; [5]): 1480 nM

KEYCVECYM
Kd (HLA-B*15:01; [9]): 4620 nM

RYPIDPFLL
Kd (HLA-A*24:03; source organism: Mammarenavirus lassaense): 5.6 nM

EPIPMATYGW
Kd (HLA-B*53:01; [6]): 13.2 nM
Kd (HLA-A*26:01; [6]): ≥ 69700 nM

LETLMLVAL
Kd (HLA-B*44:02; [5]): 1100 nM
Kd (HLA-B*40:01 [2]; [5]): 3.49 nM

KLRPKWLDA
Kd (HLA-A*30:01; [5]): 32.7 nM

LEFFLIVLL
Kd (HLA-B*44:03; [3]): 17600 nM
Kd (HLA-B*40:01 [2]; [3]): 123 nM

KAYLYTEYF
Kd (HLA-B*15:01; [9]): 7.64 nM

AETQHGTVL
Kd (HLA-B*44:03; [6]): 52.7 nM
Kd (HLA-B*40:01 [2]; [6]): 0.32 nM

EENMDVEIW
Kd (HLA-B*44:03; [6]): 123 nM
Kd (HLA-B*44:02; [6]): 82.8 nM

HEHKSTWHY
Kd (HLA-B*44:03; [7]): 9.11 nM
Kd (HLA-B*44:02; [7]): 19.8 nM

KYRYGTFLY
Kd (HLA-A*30:01; [9]): 1.07 nM

MELIDGISL
Kd (HLA-B*44:03; [10]): 226 nM
Kd (HLA-B*44:02; [10]): 375 nM
Kd (HLA-B*40:01 [2]; [10]): 2.29 nM

GAIDLCRHF
Kd (HLA-B*15:01; [9]): 117 nM

DIMGIPYCNY
Kd (HLA-A*29:02; [11]): 105 nM
Kd (HLA-A*30:02; [11]): 444 nM
Kd (HLA-A*26:01; [11]): 541 nM
Kd (HLA-A*30:01; [11]): ≥ 70400 nM
Kd (HLA-A*32:01; [11]): ≥ 69900 nM
Kd (HLA-A*01:01; [11]): ≥ 28900 nM

FQYSDRRWCF
Kd (HLA-A*24:02; [6]): 2480 nM
Kd (HLA-B*15:01; [6]): 3.88 nM
Kd (HLA-A*23:01; [6]): 272 nM

KIRCEITSF
Kd (HLA-B*15:01; [9]): 4.28 nM

MANICWIYY
Kd (HLA-B*57:01): 256 nM
Kd (HLA-B*58:01): 43.3 nM

RIIPKNNHA
Kd (HLA-B*15:01; [9]): 444 nM

KEISNMLNIM
Kd (HLA-B*40:01 [2]; [7]): 8.34 nM

TEIASLPTY
Kd (HLA-B*44:03; [5]): 18.5 nM
Kd (HLA-B*44:02; [5]): 13 nM

MERFNCSSF
Kd (HLA-B*15:01; [4]): 1.62 nM

KLSHSDYEY
Kd (HLA-A*29:02; [12]): 1260 nM
Kd (HLA-A*30:02; [12]): 22.5 nM
Kd (HLA-A*26:01; [12]): ≥ 77900 nM
Kd (HLA-A*30:01; [12]): ≥ 24200 nM
Kd (HLA-A*32:01; [12]): 6390 nM
Kd (HLA-A*01:01; [12]): 2580 nM

LALFLAHYI
Kd (HLA-B*51:01; [8]): 342 nM

IIKSSYVFK
Kd (HLA-A*30:01; [9]): 10.9 nM

TTTDSRCPTQ
Kd (HLA-A*30:01; [6]): ≥ 51200 nM

STYYVHENK
Kd (HLA-A*31:01): 57.3 nM
Kd (HLA-A*68:01; [13]): 13 nM
Kd (HLA-A*33:01): 454 nM
Kd (HLA-A*03:01): 5.16 nM
Kd (HLA-A*30:01; [13]): 3320 nM

SQEAEFTGY
Kd (HLA-B*46:01; source organism: Yellow fever virus): ≥ 20000 nM

FTMRLLSPVR
Kd (HLA-A*68:01; [3]): 7.73 nM
Kd (HLA-A*30:01; [3]): 9070 nM

YFHAELNYL
Kd (HLA-A*24:03; source organism: Vibrio vulnificus): 3.7 nM

ERRYVNVHF
Kd (HLA-B*15:01; [9]): 7380 nM

FTTRHRKPTY
Kd (HLA-A*30:01; [5]): 1960 nM
Kd (HLA-A*01:01; [5]): ≥ 23600 nM

YQPEREKVY
Kd (HLA-B*46:01; source organism: West Nile virus): ≥ 20000 nM
